{"source": "patent US20100322937A1", "about": "(published 2010)", "binders": {"B1": {"name": "Murine EGF, purified from mouse submaxillary glands (ligand, UniProt P01132 977-1029, looked up)", "chain": "NSYPGCPSSYDGYCLNGGVCMHIESLDSYTCNCVIGYSGDRCQTRDLRWWELR", "modifications": "iodinated with 125I (Iodogen) as tracer in the Scatchard assays", "notes": "mature; also called ^125I-EGF"}}, "key": {"[1]": {"target": "T1, wtEGFR: full-length human EGFR with FLAG tag after the leader, on BaF/3 cells (human, UniProt P00533 25-1210)", "experiment": "cell-based or functional assay"}, "[2]": {"target": "T2, Y^246F EGFR (full-length human, FLAG tag) on BaF/3 cells (human, UniProt P00533 25-1210)", "experiment": "cell-based or functional assay"}, "[3]": {"target": "T3, Y^246W EGFR (full-length human, FLAG tag) on BaF/3 cells (human, UniProt P00533 25-1210)", "experiment": "cell-based or functional assay"}, "[4]": {"target": "T4, Y^246D EGFR (full-length human, FLAG tag) on BaF/3 cells (human, UniProt P00533 25-1210)", "experiment": "cell-based or functional assay"}, "[5]": {"target": "T5, V^583D EGFR (full-length human, FLAG tag) on BaF/3 cells (human, UniProt P00533 25-1210)", "experiment": "cell-based or functional assay"}, "[6]": {"target": "T6, D^563H EGFR (full-length human, FLAG tag) on BaF/3 cells (human, UniProt P00533 25-1210)", "experiment": "cell-based or functional assay"}, "[7]": {"target": "T7, E^578C EGFR (full-length human, FLAG tag) on BaF/3 cells (human, UniProt P00533 25-1210)", "experiment": "cell-based or functional assay"}, "[8]": {"target": "T1, wtEGFR: full-length human EGFR with …", "experiment": "Scatchard, 125I-EGF on BaF/3 cells", "protocol": "(§1) Ligand binding to cells expressing the wt or mutant EGFR was determined at room temperature in the presence of the internalization inhibitor phenylarsine oxide (PAO) (29) by cold saturation experiments. […] All experimental points were prepared in triplicate. At the end of the incubation, the cells were pelleted and washed twice in ice-cold PBS before transferring to fresh tubes for counting in a Wallac WIZARD γ-counter (PerkinElmer, Boston, Mass.). Scatchard plots and estimates of ligand binding affinities and receptor numbers were obtained using the Radlig program (BioSoft, Cambridge, UK).\n(§2) Data were analyzed using the “Kell for Windows” RadLig program. ^{(a)}Number of receptors per cell were calculated from the Bₘₐₓ and the number of cells/tube in each ligand binding experiment."}, "[9]": {"target": "T2, Y^246F EGFR (full-length human, FLAG …)", "experiment": "Scatchard, 125I-EGF on BaF/3 cells", "protocol": "as §1, §2"}, "[10]": {"target": "T3, Y^246W EGFR (full-length human, FLAG …)", "experiment": "Scatchard, 125I-EGF on BaF/3 cells", "protocol": "as §1, §2"}, "[11]": {"target": "T4, Y^246D EGFR (full-length human, FLAG …)", "experiment": "Scatchard, 125I-EGF on BaF/3 cells", "protocol": "as §1, §2"}, "[12]": {"target": "T5, V^583D EGFR (full-length human, FLAG …)", "experiment": "Scatchard, 125I-EGF on BaF/3 cells", "protocol": "as §1, §2"}, "[13]": {"target": "T6, D^563H EGFR (full-length human, FLAG …)", "experiment": "Scatchard, 125I-EGF on BaF/3 cells", "protocol": "as §1, §2"}, "[14]": {"target": "T7, E^578C EGFR (full-length human, FLAG …)", "experiment": "Scatchard, 125I-EGF on BaF/3 cells", "protocol": "as §1, §2"}, "[15]": {"target": "T8, L^245C/E^578C EGFR (full-length human, FLAG tag) on BaF/3 cells (human, UniProt P00533 25-1210)", "T8 construct": "whole, on cells", "experiment": "Scatchard, 125I-EGF on BaF/3 cells", "protocol": "as §1, §2"}, "[16]": {"target": "T1, wtEGFR: full-length human EGFR with …", "experiment": "calculated from Scatchard Kd and Bmax", "protocol": "as §1\n(§3) The data are representative of at least three separate experiments"}, "[17]": {"target": "T2, Y^246F EGFR (full-length human, FLAG …)", "experiment": "calculated from Scatchard Kd and Bmax", "protocol": "as §1, §3"}, "[18]": {"target": "T3, Y^246W EGFR (full-length human, FLAG …)", "experiment": "calculated from Scatchard Kd and Bmax", "protocol": "as §1, §3"}, "[19]": {"target": "T4, Y^246D EGFR (full-length human, FLAG …)", "experiment": "calculated from Scatchard Kd and Bmax", "protocol": "as §1, §3"}, "[20]": {"target": "T5, V^583D EGFR (full-length human, FLAG …)", "experiment": "calculated from Scatchard Kd and Bmax", "protocol": "as §1, §3"}, "[21]": {"target": "T6, D^563H EGFR (full-length human, FLAG …)", "experiment": "calculated from Scatchard Kd and Bmax", "protocol": "as §1, §3"}, "[22]": {"target": "T7, E^578C EGFR (full-length human, FLAG …)", "experiment": "calculated from Scatchard Kd and Bmax", "protocol": "as §1, §3"}, "[23]": {"target": "T1, wtEGFR: full-length human EGFR with …", "experiment": "Scatchard, 125I-EGF on BaF/3 cells, Kd2 (low-affinity site)", "protocol": "as §1, §2"}, "[24]": {"target": "T2, Y^246F EGFR (full-length human, FLAG …)", "experiment": "Scatchard, 125I-EGF on BaF/3 cells, Kd2 (low-affinity site)", "protocol": "as §1, §2"}, "[25]": {"target": "T3, Y^246W EGFR (full-length human, FLAG …)", "experiment": "Scatchard, 125I-EGF on BaF/3 cells, Kd2 (low-affinity site)", "protocol": "as §1, §2"}, "[26]": {"target": "T4, Y^246D EGFR (full-length human, FLAG …)", "experiment": "Scatchard, 125I-EGF on BaF/3 cells, Kd2 (low-affinity site)", "protocol": "as §1, §2"}, "[27]": {"target": "T5, V^583D EGFR (full-length human, FLAG …)", "experiment": "Scatchard, 125I-EGF on BaF/3 cells, Kd2 (low-affinity site)", "protocol": "as §1, §2"}, "[28]": {"target": "T6, D^563H EGFR (full-length human, FLAG …)", "experiment": "Scatchard, 125I-EGF on BaF/3 cells, Kd2 (low-affinity site)", "protocol": "as §1, §2"}, "[29]": {"target": "T7, E^578C EGFR (full-length human, FLAG …)", "experiment": "Scatchard, 125I-EGF on BaF/3 cells, Kd2 (low-affinity site)", "protocol": "as §1, §2"}, "[30]": {"target": "T8, L^245C/E^578C EGFR (full-length human, …)", "experiment": "Scatchard, 125I-EGF on BaF/3 cells, Kd2 (low-affinity site)", "protocol": "as §1, §2"}, "[31]": {"target": "T1, wtEGFR: full-length human EGFR with …", "experiment": "Scatchard, 125I-EGF on BaF/3 cells, Kd1 (high-affinity site)", "protocol": "as §1, §2"}, "[32]": {"target": "T5, V^583D EGFR (full-length human, FLAG …)", "experiment": "Scatchard, 125I-EGF on BaF/3 cells, Kd1 (high-affinity site)", "protocol": "as §1, §2"}, "[33]": {"target": "T6, D^563H EGFR (full-length human, FLAG …)", "experiment": "Scatchard, 125I-EGF on BaF/3 cells, Kd1 (high-affinity site)", "protocol": "as §1, §2"}}, "data": [{"binder": "B1", "values": [{"measurement": "% maximal incorporation ([^3H]Thymidine)", "setting": "[1]", "result": 100, "unit": "%"}, {"measurement": "EC50 for EGF ([^3H]Thymidine incorporation)", "setting": "[1]", "result": 0.012, "unit": "nM"}, {"measurement": "% maximal incorporation ([^3H]Thymidine)", "setting": "[2]", "result": 16, "unit": "%"}, {"measurement": "EC50 for EGF ([^3H]Thymidine incorporation)", "setting": "[2]", "result": 0.03, "unit": "nM"}, {"measurement": "% maximal incorporation ([^3H]Thymidine)", "setting": "[3]", "result": 0, "unit": "%"}, {"measurement": "% maximal incorporation ([^3H]Thymidine)", "setting": "[4]", "result": 0, "unit": "%"}, {"measurement": "% maximal incorporation ([^3H]Thymidine)", "setting": "[5]", "result": 100, "unit": "%"}, {"measurement": "EC50 for EGF ([^3H]Thymidine incorporation)", "setting": "[5]", "result": 0.006, "unit": "nM"}, {"measurement": "% maximal incorporation ([^3H]Thymidine)", "setting": "[6]", "result": 90, "unit": "%"}, {"measurement": "EC50 for EGF ([^3H]Thymidine incorporation)", "setting": "[6]", "result": 0.005, "unit": "nM"}, {"measurement": "% maximal incorporation ([^3H]Thymidine)", "setting": "[7]", "result": 100, "unit": "%"}, {"measurement": "EC50 for EGF ([^3H]Thymidine incorporation)", "setting": "[7]", "result": 0.1, "unit": "nM"}, {"measurement": "% of sites (Kd1)", "setting": "[8]", "result": 2.6, "unit": "%"}, {"measurement": "% of sites (Kd2)", "setting": "[8]", "result": 97.5, "unit": "%"}, {"measurement": "R/cell (from Bmax)", "setting": "[8]", "result": 34000, "unit": "receptors/cell"}, {"measurement": "% of sites (Kd2)", "setting": "[9]", "result": 100, "unit": "%"}, {"measurement": "R/cell (from Bmax)", "setting": "[9]", "result": 30000, "unit": "receptors/cell"}, {"measurement": "% of sites (Kd2)", "setting": "[10]", "result": 100, "unit": "%"}, {"measurement": "R/cell (from Bmax)", "setting": "[10]", "result": 29000, "unit": "receptors/cell"}, {"measurement": "% of sites (Kd2)", "setting": "[11]", "result": 100, "unit": "%"}, {"measurement": "R/cell (from Bmax)", "setting": "[11]", "result": 12000, "unit": "receptors/cell"}, {"measurement": "% of sites (Kd1)", "setting": "[12]", "result": 12.6, "unit": "%"}, {"measurement": "% of sites (Kd2)", "setting": "[12]", "result": 90.8, "unit": "%"}, {"measurement": "R/cell (from Bmax)", "setting": "[12]", "result": 38000, "unit": "receptors/cell"}, {"measurement": "% of sites (Kd1)", "setting": "[13]", "result": 4.4, "unit": "%"}, {"measurement": "% of sites (Kd2)", "setting": "[13]", "result": 96.4, "unit": "%"}, {"measurement": "R/cell (from Bmax)", "setting": "[13]", "result": 23000, "unit": "receptors/cell"}, {"measurement": "% of sites (Kd2)", "setting": "[14]", "result": 100, "unit": "%"}, {"measurement": "R/cell (from Bmax)", "setting": "[14]", "result": 34500, "unit": "receptors/cell"}, {"measurement": "% of sites (Kd2)", "setting": "[15]", "result": 100, "unit": "%"}, {"measurement": "[EGF] at which 500R/cell are occupied", "setting": "[16]", "result": 16, "unit": "pM"}, {"measurement": "[EGF] at which 500R/cell are occupied", "setting": "[17]", "result": 30, "unit": "pM"}, {"measurement": "[EGF] at which 500R/cell are occupied", "setting": "[18]", "result": 60, "unit": "pM"}, {"measurement": "[EGF] at which 500R/cell are occupied", "setting": "[19]", "result": 400, "unit": "pM"}, {"measurement": "[EGF] at which 500R/cell are occupied", "setting": "[20]", "result": "< 1", "unit": "pM"}, {"measurement": "[EGF] at which 500R/cell are occupied", "setting": "[21]", "result": 8, "unit": "pM"}, {"measurement": "[EGF] at which 500R/cell are occupied", "setting": "[22]", "result": 80, "unit": "pM"}, {"measurement": "Kd", "setting": "[23]", "result": 1.6, "unit": "nM"}, {"measurement": "Kd", "setting": "[24]", "result": 2.8, "unit": "nM"}, {"measurement": "Kd", "setting": "[25]", "result": 2.5, "unit": "nM"}, {"measurement": "Kd", "setting": "[26]", "result": 2.1, "unit": "nM"}, {"measurement": "Kd", "setting": "[27]", "result": 1.3, "unit": "nM"}, {"measurement": "Kd", "setting": "[28]", "result": 1.7, "unit": "nM"}, {"measurement": "Kd", "setting": "[29]", "result": 1.7, "unit": "nM"}, {"measurement": "Kd", "setting": "[30]", "result": 2.1, "unit": "nM"}, {"measurement": "Kd", "setting": "[31]", "result": 0.029, "unit": "nM"}, {"measurement": "Kd", "setting": "[32]", "result": 0.0026, "unit": "nM"}, {"measurement": "Kd", "setting": "[33]", "result": 0.0176, "unit": "nM"}]}]}
